According to patent publication US20260042834A1 (HBM ALPHA THERAPEUTICS, published 2026):

T1: corticotropin-releasing hormone (CRH) peptide (human and mouse (same sequence), not fully specified)
T1 peptide: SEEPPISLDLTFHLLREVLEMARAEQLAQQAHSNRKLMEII

T2: CRH (NT-Biotin) (human and mouse (same sequence), not fully specified; biotin at the N-terminus)
T2 peptide: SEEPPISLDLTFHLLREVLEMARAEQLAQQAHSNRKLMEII

T3: CRH (CT-Biotin) (human and mouse (same sequence), biotin on an added C-terminal K (CRH-K-Biotin))
T3 construct: also called Peptide 4 (CRH-Biotin)
T3 peptide: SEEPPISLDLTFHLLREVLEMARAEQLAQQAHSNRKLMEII


Columns and labels:
[1] = molecular target: T1, corticotropin-releasing hormone (CRH) …; assay: cell-based or functional assay
[2] = molecular target: T2, CRH (NT-Biotin); assay: ELISA, biotinylated CRH on streptavidin plate
Procedure: (§1) Streptavidin (Thermo, Cat: 21125) was diluted in PBS to a concentration of 2 μg/ml. 100 μl of diluted streptavidin was added per well to ELISA microplates, and the plates were incubated overnight at 4° C. […] 100 μL of 3,3′,5,5′-tetramethylbenzidine (TMB) substrate (Biopanda, Cat: TMB-S-003) was added, and the plates were incubated at room temperature for 15 minutes. 100 μL of ELISA stopping solution (Solarbio, Cat #: C1058) was added to terminate the reaction, and the optical density at 450 nm (OD450 nm) was determined by an ELISA plate reader (Molecular Devices, Spectra max 384 plus).

[3] = molecular target: T3, CRH (CT-Biotin); assay: ELISA, biotinylated CRH on streptavidin plate
Procedure: as §1

| hCRHR1 Luciferase Reporter Assay IC50 [1] [nM] | mCrhr1 Luciferase Reporter Assay IC50 [1] [nM] | EC50 [2] [nM] | EC50 [3] [nM] | Binder |
| --- | --- | --- | --- | --- |
| 1.4 | 3.03 | 0.04 | 0.033 | PR302036 (antibody, human IgG1, kappa, V domains shown, humanized variant of PR301777) VH: EMQLVESGGGLVQPGGSLRLSCAASGFTFSNYWMNWVRQAPGKGLEWVAEIRLKSNNYATHYAESVKGRFTISRDDSKSSVYLQMNSLKTEDTAVYYCTVGTLVYWGQGTLVTVSS VL: DIVLTQSPDSLAVSLGERATINCRASQSVSTSTYNYMHWFQQKPGQPPKLLIKFASNLESGVPDRFSGSGSGTDFTLTISSLQAEDTAVYYCQHSWEIPYTFGQGTKLEIKR |
| 3.34 | 10.1 | 0.065 | 0.04 | PR302038 (antibody, human IgG1, kappa, V domains shown, humanized variant of PR301777) VH: EMQLVESGGGLVQPGGSLRLSCAASGFTFSNYWMNWVRQAPGKGLEWVAEIRLKSNNYATHYAESVKGRFTISRDDSKSSVYLQMNSLKTEDTAVYYCTVGTLVYWGQGTLVTVSS VL: EIVLTQSPATLSLSPGERATLSCRASQSVSTSTYNYMHWFQQKPGQAPRLLIKFASNLESGIPARFSGSGSGTDFTLTISSLEPEDTAVYYCQHSWEIPYTFGQGTKLEIKR |
| 2.54 | 7.17 | 0.063 | 0.035 | PR302041 (antibody, human IgG1, kappa, V domains shown, humanized variant of PR301777) VH: EMQLVESGGGLVQPGGSLRLSCAASGFTFSNYWMNWVRQAPGKGLEWVAEIRLKSNNYATHYAESVKGRFTISRDDSKSSVYLQMNSLKTEDTAVYYCTVGTLVYWGQGTLVTVSS VL: DIQLTQSPSSLSASVGDRVTITCRASQSVSTSTYNYMHWFQQKPGKAPKLLIKFASNLESGVPSRFSGSGSGTDFTLTISSLQPEDTATYYCQHSWEIPYTFGQGTKLEIKR |
| 3.87 | 9.97 | 0.046 | 0.03 | PR302043 (antibody, human IgG1, kappa, V domains shown, humanized variant of PR301777) VH: EVQLVESGGGLVQPGGSLKLSCAASGFTFSNYWMNWVRQASGKGLEWVGEIRLKSNNYATHYAESVKGRFTISRDDSKNTAYLQMNSLKTEDTAVYYCTRGTLVYWGQGTLVTVSS VL: DIVLTQSPDSLAVSLGERATINCRASQSVSTSTYNYMHWFQQKPGQPPKLLIKFASNLESGVPDRFSGSGSGTDFTLTISSLQAEDTAVYYCQHSWEIPYTFGQGTKLEIKR |
| 1.35 | 4.67 | – | 0.013 | PR302055 (antibody, human IgG1, kappa, V domains shown, humanized variant of PR301777) VH: EMQLVESGGGLVQPGGSLKLSCAASGFTFSNYWMNWVRQASGKGLEWVAEIRLKSNNYATHYAESVKGRFTISRDDSKSTVYLQMNSLKTEDTAVYYCTVGTLVYWGQGTLVTVSS VL: DIQLTQSPSSLSASVGDRVTITCRASQSVSTSTYNYMHWFQQKPGKAPKLLIKFASNLESGVPSRFSGSGSGTDFTLTISSLQPEDTATYYCQHSWEIPYTFGQGTKLEIKR |
| 6.87 | 204 | 0.026 | 0.022 | PR302034 (antibody, human IgG1, kappa, V domains shown, humanized variant of PR301777) VH: EVQLVESGGGLVQPGGSLRLSCAASGFTFSNYWMNWVRQAPGKGLEWVGEIRLKSNNYATHYAESVKGRFTISRDDSKNSLYLQMNSLKTEDTAVYYCTVGTLVYWGQGTLVTVSS VL: DIQLTQSPSSLSASVGDRVTITCRASQSVSTSTYNYMHWFQQKPGKAPKLLIKFASNLESGVPSRFSGSGSGTDFTLTISSLQPEDTATYYCQHSWEIPYTFGQGTKLEIKR |
| 2.65 | 13.9 | 0.03 | 0.027 | PR302029 (antibody, human IgG1, kappa, V domains shown, humanized variant of PR301777) VH: EVQLVESGGGLVQPGGSLRLSCAASGFTFSNYWMNWVRQAPGKGLEWVGEIRLKSNNYATHYAESVKGRFTISRDDSKNSLYLQMNSLKTEDTAVYYCTVGTLVYWGQGTLVTVSS VL: DIVLTQSPDSLAVSLGERATINCRASQSVSTSTYNYMHWFQQKPGQPPKLLIKFASNLESGVPDRFSGSGSGTDFTLTISSLQAEDTAVYYCQHSWEIPYTFGQGTKLEIKR |
| 2.05 | 7.32 | 0.048 | 0.018 | PR302052 (antibody, human IgG1, kappa, V domains shown, humanized variant of PR301777) VH: EMQLVESGGGLVQPGGSLKLSCAASGFTFSNYWMNWVRQASGKGLEWVAEIRLKSNNYATHYAESVKGRFTISRDDSKSTVYLQMNSLKTEDTAVYYCTVGTLVYWGQGTLVTVSS VL: EIVLTQSPATLSLSPGERATLSCRASQSVSTSTYNYMHWFQQKPGQAPRLLIKFASNLESGIPARFSGSGSGTDFTLTISSLEPEDTAVYYCQHSWEIPYTFGQGTKLEIKR |
